Measured values published in patent US20240115704A1, “TREATMENT OF CANCER WITH NK CELLS AND A CD38-TARGETED ANTIBODY” (Artiva Biotherapeutics, Inc., priority 2021, published 2024).

Molecular target: CD38 (human) (UniProt P28907)
Experiment: cell-based or functional assay

ADCC (percent specific lysis) of MM.1R multiple myeloma cells by AB-101, 0.31:1 E:T, 2 µg/mL daratumumab, 4 h: 4.88%
ADCC (percent specific lysis) of MM.1R multiple myeloma cells by AB-101, 10:1 E:T, 2 µg/mL daratumumab, 4 h: 42.4%
ADCC (percent specific lysis) of MM.1S multiple myeloma cells by AB-101, 0.31:1 E:T, 2 µg/mL daratumumab, 4 h: 2.34%
ADCC (percent specific lysis) of MM.1S multiple myeloma cells by AB-101, 10:1 E:T, 2 µg/mL daratumumab, 4 h: 19.8%
ADCC (percent specific lysis) of NCI-H929 multiple myeloma cells by AB-101, 0.31:1 E:T, 2 µg/mL daratumumab, 4 h: 3.38%
ADCC (percent specific lysis) of NCI-H929 multiple myeloma cells by AB-101, 10:1 E:T, 2 µg/mL daratumumab, 4 h: 46.4%
ADCC (percent specific lysis) of RPMI 8226 multiple myeloma cells by AB-101, 0.31:1 E:T, 2 µg/mL daratumumab, 4 h: 8.75%
ADCC (percent specific lysis) of RPMI 8226 multiple myeloma cells by AB-101, 10:1 E:T, 2 µg/mL daratumumab, 4 h: 58.2%
daratumumab-mediated ADCC (percent specific lysis) of Daudi cells by AB-101, 10:1 E:T, 2 µg/mL daratumumab, 4 h: 79.5%
Substance: daratumumab (antibody)
complement-dependent cytotoxicity of Daudi cells with human complement serum: daratumumab concentration at which lysis was saturated: < 0.41 µg/mL
